Target: human TrkA on TF-1 cells (human), P04629
Experiment: cell-based or functional assay

Sequence of human TrkA on TF-1 cells (human), P04629 (P04629 33-796): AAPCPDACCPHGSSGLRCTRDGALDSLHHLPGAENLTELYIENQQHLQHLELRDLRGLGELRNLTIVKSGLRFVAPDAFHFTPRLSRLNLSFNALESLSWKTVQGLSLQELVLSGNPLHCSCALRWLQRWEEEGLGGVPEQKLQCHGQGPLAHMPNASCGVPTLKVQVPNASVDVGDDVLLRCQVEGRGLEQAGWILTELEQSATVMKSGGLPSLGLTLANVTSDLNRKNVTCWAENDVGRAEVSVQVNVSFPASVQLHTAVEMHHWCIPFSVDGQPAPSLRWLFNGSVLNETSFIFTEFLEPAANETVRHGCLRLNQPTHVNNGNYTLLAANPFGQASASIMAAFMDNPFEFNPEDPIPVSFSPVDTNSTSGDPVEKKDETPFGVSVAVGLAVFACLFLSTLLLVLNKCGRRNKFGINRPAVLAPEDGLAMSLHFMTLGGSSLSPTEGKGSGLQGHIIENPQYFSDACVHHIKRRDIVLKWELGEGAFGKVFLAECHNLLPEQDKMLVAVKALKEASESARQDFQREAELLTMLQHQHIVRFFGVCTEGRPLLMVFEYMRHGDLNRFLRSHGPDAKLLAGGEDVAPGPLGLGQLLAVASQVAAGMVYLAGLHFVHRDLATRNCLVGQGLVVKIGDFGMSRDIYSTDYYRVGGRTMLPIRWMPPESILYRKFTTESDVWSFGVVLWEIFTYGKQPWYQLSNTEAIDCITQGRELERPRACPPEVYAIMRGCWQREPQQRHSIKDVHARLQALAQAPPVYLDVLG

TF-1 cell proliferation assay IC50 (5 ng/ml human beta-NGF): 0.23 µg/mL
B1: MNAC13 mouse antibody (antibody, mouse IgG1, kappa)
heavy: EVKLVESGGGLVQPGGSLKLSCAASGFTFSTYTMSWARQTPEKRLEWVAYISKGGGSTYYPDTVKGRFTISRDNAKNTLYLQMSSLKSEDTALYYCARGAMYGNDFFYPMDYWGQGTSVTVSSKTTPPSVYPLAPGSAAQTNSMVTLGCLVKGYFPEPVTVTWNSGSLSSGVHTFPAVLESDLYTLSSSVTVPSSPRPSETVTCNVAHPASSTKVDKKIVPRDCGCKPCICTVPEVSSVFIFPPKPKDVLTITLTPKVTCVVVDISKDDPEVQFSWFVDDVEVHTAQTQPREEQFNSTFRSVSELPIMHQDWLNGKEFKCRVNSAAFPAPIEKTISKTKGRPKAPQVYTIPPPKEQMAKDKVSLTCMITDFFPEDITVEWQWNGQPAENYKNTQPIMNTNGSYFVYSKLNVQKSNWEAGNTFTCSVLHEGLHNHHTEKSLSHSPGK
light: QIVLTQSPAIMSASLGEEITLTCSASSSVSYMHWYQQKSGTSPKLLIYTTSNLASGVPSRFSGSGSGTFYSLTISSVEAEDAADYYCHQWSSYPWTFGGGTKLEIKADAAPTVSIFPPSSEQLTSGGASVVCFLNNFYPKDINVKWKIDGSERQNGVLNSWTDQDSKDSTYSMSSTLTLTKDEYERHNSYTCEATHKTSTSPIVKSFNRNEC
